# Reference: the NTF2 design screens of Basanta et al. (2020)
# Assay: protease stability score; higher = more stable; yeast display proteolysis, trypsin and chymotrypsin;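 note: relative to predicted unfolded state with 0 unfolded-like and 1 meaning tenfold more protease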
row,Sequence,protease stability score
1,EEEEEDARRASKIFYHNFLTGDEQNLLKLADPHVLLIINGVHFHGWERYKKWEEERRDKFKNVRLELEDMDVEVIGDKIESIIHLRVDIGDKRIHMEVIFIIEKVDGRWKLRSQEVRIE,1.03
2,DEEEEHAITFMKILIHLWITGDWETLKRLADPDTKVIERFNGKRVEIHGRELWSKIRKEIIDQLRIRIHPHHVSVVGDKLYSDEHLVFHYNGRDIRLDIHLEMVVVNGRMKHFRFHEE,1.06
3,SDEEERIRRVAEHILHLILTGDEDRWEDMMDPNVRVHIDWNGVKIHLHGREKAAEFFKRFKNIRIEIHSVRIIGEKNDSDERLHVNGQTRDLHNHIIVVNGRIEHMEIRVR,2.66
4,SEEEKRMTEDAEHFWRRFLTGDWRTLSRLIDPHVIIHINGVDLHGRHDAHREMEEHAEQFKNIKVHIDHIDVVGDKLHVDVTININGRRFKEEIIIVMFNGRVKELEVRTH,1.61
5,SDLDDMATKLIHEWIHAELTGDFKRIEELIDPHVRIVIEVNGRRIELIGREELRRWLEEWMEEMRHEIKLTHIEVQGEKTHVDTHLVIRAENHSYHHKTSRIFIIINGRMHSIHVHIR,1.7
6,DEDTLIAKEIAELIIHALLTGDEDILKRLMDPTVKNDVNGVEFHGREILYKLLLEMRIHRVEYTHIDMRIYNGRAEVRIHGKIHVTINGVHDDKERRIDIIIVKINGKWTIESFVVHRL,2.53
7,DENRRHELEIAQILLHAWVTGDEHILRRFADPDMQFVLEFDGKTIDLHGRELVISFFRDLVDKLGVDHITLESHRVINGRTHIDTRVIFNGVDREEKIHIHIVNGRLKHLELRVH,1.22
8,DEDEELYEKFTRDLNHSLMTGDEEVMRELADPHVKVDFNGRELHGWEAVTFLLRVMGIDHLELKDIRLQGDKARNYTILRFNGRTSTLIVVLHKVNGKWIIESFEYR,1.07
9,TESEFMKEYANKHLTRHLETGDWKDFQRNVDPNARVDFNGVELIGREHAIKLFHEIRIEHLEIHDVKMQGDKLEVDGILHTRQGDKRHDLKVIIHMLKVDGKWVITEIEVR,0.948
10,SEIHRDVEEFMKRFDRDLETGDEKILEKLVDPDVKTIVNGKIFHGRETFIKLMLTIFKEMRNEHVELQSLEVQGNKAHAETRVRLTIGDWTFYLRTELHLEKYDGRWRFHSVTIE,1.93
11,SETEKFAEIALKLWIRRLRTGDEHEESMLADPNTLYVQGDKNIHGMERISRFFKEILTRHGITFNHFHLEHIEVQGNKVRLDLRVDGEFDGQRMNQEVELISIKVDGRWFLESVIIR,1.62
12,DEEKKSSDIAIHESLRVLKTGDEHDISEMMDPHVRIDINGREIIGMELASEIHHEIMNRIKNVRIEVKDRKLVNGQIILRGELRWNGQTVELEVTLKKINGKWWMESLHVR,0.606
13,DEWTEDVREALHLIKHSIETGDPRLIEELADPNVRVLYGNKVYHGREKLSDLVTEWRTTHVDFHHVRVIGDKIDIDVIIRSEYNGRVVDLKEKIVATKINGKWILHSRNIH,0.531
14,DEEERDARRVYEHLIENWETGNFDRVLELFDPHVKLIFNGQEFIGRDDVSKEINRIDHEHIDDFRLHSIRIVDGRIEIDGRIRFTLHVNGKTVHFDRKLILIMRKVDGRWIITSLHIR,2.09
15,DEEKHILDRYWEEWLHALITGDEERLMELIDPNAKHVFNGKELHGRESLTELLRRLGMEIKDIRDHDLKVIGDKLHIDTRIDGIINGRQTTIRMHIIATKIDGKWVHTKLEVR,1.23
16,SHEDELNEKIAKTFFKDLLTGDEDSITHLLDPNARVHIHVNGRHILIHGREWLEYLKKHARIRHFELHDMEIQGDKLIFDVEVVIEYGDKVIERRSEEILILFNGRVTSYHLIIK,1.2
17,DEDQEIAEHVAELILELLLTGDEEKFLTLLDPNVRIIVGDKELHGREDWMRLFRHMRVRHVELRKIEVQGEKVHVDSRLDVEFNGRRRNINANWIVLKVNGRWTIRSVELE,2.17
18,DEREELLRRWTEEFLDVFHTGDPKETMDMVDPHARIIVIINGRTIEDHGWEHVKILLEQIRVHDFHLTDVRVVNGKVRIDGRYDGYVNGQRVDHHVIIINVVVDGRTHTLLIEIR,0.804
19,SEEEHRVKELARLFVEVLLTGDWKTLLELMDPNTRLRINGKDFIGMEDAVKAWRDYLDEIRHDDIKLTRIENNEDHSHLDGRQHGIYNGQRTDTILNVDIHMVNGKIKEVHIEIE,1.01
20,DENTRLRREAFRIERKTWKTGDERLLEENADPDAKYDVDGKDLHGWREVVHFLDDFLKRFGFDHFEVKEIRVQGEKIIIDGRVEVNGRVFETRVIFTKFDGQWSVQSLQMR,0.444
21,DEDEKRARHALTLLVHSFLTGNFEFTTELLDPHYKLHVGEKTYIGRKAIKEWIREFHERIPNIKLKDITIEHMTWVGEKVVVHSRVEGEVDGKEMFLQVEIIMEKVNGRWIVHSIHMN,2.01
22,DESQEIAIEASKRLYNHLLTGDEDNLKRLLDPHVRIEIDGRDIHGMEEVTRLKREWRFDSIEIRVDSVRDVNGRLDVKGHMRYHVRIGDKSHDREVKMHLTAEKIDGRWHNKSIHFE,1.26
23,SEHFEIALEILKLFLRSRHTGDWKTMEEMADPDVRLEVGEYTNHGWEEILRVLEELRFEIHFIHDHDVKFQGDKLHLDGHVDGVRRVDGQEVRIVSHIEIISVVVNGRAKSYSEHWV,0.631
24,DEHEEKIHFILHILQEAWRTGDESQLENLLDPNVRIIIGDKKTHGREAVINLFNHWRVENIRVHLRDVRVQGDKIHLETEIQVDGNVNGKTDRIEFETEFIIRKVDGRWLIEVIRMH,2.17
25,SEDEEHARRFRELWLRIFHTGDWHEFHKLLDPNVRTQVGEFHDIGRESAAEHLELFLKQLGVDHTDITHVELIYIGDKVEVNILLRKEQGDKEYTFRIHIVVRKVNGQWLIKSIHITVE,1.54

row,Sequence,protease stability score
1,SEEEEILRHIVELLLHILITGNEHALRTLLDPNARVDINGVTIHGREQESHIILEEVERIDHMDLKIEHLHVQGDKVHTKVERTIHIGEKEIRIEEEINLVIFNGRLRVSILHVH,0.97
2,SERDKFTEEVARLWYHLLYTGNEELLQHMMDPDVRVHINGRTVVGRHEATRLLHELSETFGINHIHIHDIKIQGDKSDDDTEIQAPGRRVRVHIHLEIINGRIKRIEFRIE,1.68
3,DEEEKEMKEIMHMLDHWLRTGDEETLNHYLDPNVRLIIFIDGRNLTSIGREESRELWRYVVEEWRIHDMHVTEVRSQGDKAESNTRLKGHVNGVERTLIQHIEVDVVDGRIKRIIIRVH,2.1
4,SEVEESAKIIAELWAHSVETGDEHTLRELMDPNTRFEYGDKERHGRENVTKYFLHFQKWLGFKHIRLEIEDSKAIGDKIKIDLTIKLHQGEKHDFVIVQLFVTKVNGRWVIHSMIVH,1.58
5,DKEFEDVIRMAEHEMKLMETGDWKTHEHLADPNYRVDINGREHIGWDHFVRWLFHMRIHRIEIKEVRVQGEKATLRLKVDGEQGDKRFKTDIEFSLLIVDGRIKEIHIILH,1.36
6,DEKHEFARRYYELEKKYLKTGDEEEWLKYVDPHVRVHVGDKDLVGMELAEEQWREIRYHHIDDKDMRIQGDKLHVKGRVDGTIGDKRHRVDMEVHIEIIDGRFKRIEVRIK,0.76
7,SEDEEDMKKASETISEEYHTGDEDAHKKLMDPNARMLYGDKDTHGREHWEHVIKRFGFDHVIIKRIEIHVYDGRIDLHMDVRLIVNGQNLEVRLIIIVRKINGRWRIESVNIHIE,0.061
8,DEKTEEIERFFKKWVEALRTGDWKTLMELLDPNARFDINGREIIGREIYVKILKEELKHFGVTRIHNEVEIKHSDEQGNKLNLDGKLIINWDGKNDETRLILYVLKVDGRWIIEEVRIR,1.44
9,SEDHEVLRVALELMLHFLTTGDWHLLRKLMDPEVRIRVGEKHIHGMDLILSEWVRVIRELGVKHYHIEVKRDHHQGDKIHLDGTLHIDVNGRQIHIRTEIIAHKVDGKWIHESQVIN,0.988
10,SEEEEYAREFLERHLHSLKTGDWREEHKQADPEVRLHIGDKEFHGREIFVKIQREILEQADHLRIHIRRVHVQGDFLHIDGELRIRINGREHYIDRKVIVWKFNGRWHLHEVSIE,1.39
11,DEHKEQLRRIFELMLHLFLTGDWKQLWELADPHARFRIDGRDIHGRDNFAEEVKRIVDEWRIHIDPRHIDVFDGVNHVRTDLFFEYDGRKLRHHTRVINIVVDGRLKEVEFRIE,1.36
12,SEDDELIKKYIKRWLHDLVTGDEDSLEELIDPNARLDINGKELIGREWVERVTKELRIEHINPRSVRSINGKVEIETEVHVNVNGVKIILDRHLDIHKVNGKWIVKEVRVK,1.14
13,SELEKHLEDVASMWLKVIQTGDWDKLFELADPNVRFEQIYGDKKVELHGREEMIEWLRKFMEQMRTEHRIHSMEVQGDKVHLDTRVILDFNGVRIHLETRVIIIVVNGRLHSYSEHVK,1.31
14,SEEDEIMRRLIDITLHAFQTGDWEAVKTMADPNTRLHVNGRDIHGRDEILRFLEKSRRDLGVENIRIDYTDYRQFDGKVKYHGTDIYNGQRLETTIIIVIVDGKMKTETREIR,0.82
15,DHQERHLREFAHEVEEAWHTGDWKDMFRLFDPNTRVDFHFENHDLHLHGRESMVRFIRDFLDKFKNIRLQLTSRDRQGDKVHLTEEFHINGRIMVIHVNFDIVNGKWKRLELDFIDT,1.25
16,DEEHEWAQLVIQLFFEALHTGDEKTLHELMDPEVKVNVDGRELHGREEVMEWFEELIRQYKNAKIHLHIHRVEYVGNKVIIRGELHFRYGDKEERIDRILHVLKVDGRWLIREIEHR,1.51
17,DEEKEETEKLAKDILHNIHTGNEEEFLKLADPNTRIVQGDFRTHGRESMHFWMREVRKLFKNVRIHWRLKDVRSFEGHAITHIEVEVSFDGRTDLIRMEIHVIVVNGKIEELIINTR,0.695
18,SEEKHYFDSMLEIWRHLMQTGDERLFSELFDPNALVLFNGRHDHGRDAFRWILLQLRIDHINVHLRDFRKQGNKIIIHSEIEVDFTVNGQRREDSHMQIIIFHKIDGRWYATSLEVQ,1.53
19,TEDEKRYDDLVRHMLEVHRTGDEDLLERLLDPNARFLIDGVEYHGREQALEIARELRITSIRIRRIEFYGDKVTMDTEIDGRVNGRRRDTRVKEIWLKVDGKWYLESMEIH,1.43
20,DEKDKMSEVTLKLYIHWFLTGDWKSLFDLVDPHMQVRVGDKKFHGREQAVEEIERLLKRIDHITHIQERSFEIIGNKVHLDGELNVIIDGKRIVKDQIIIAVKIDGKWLLQIDEFE,1.92
21,SEEEKEAHDWMEVWLELFHTGDEDMLEHMADPHTRIHVDGRKFHGRENYVRLVRHMRVHHFIERRVRIINGRIHIEGEARVNINGQEIDNHVQIHLNLVDGRLKTEHIKVK,0.927
22,HEIEEIARHINNIWEERSRTGDFRHFTTLLDPHARIDINGVELHGRELWMSRVYHHFQSHGIEYSVHTKHIEVFDGRVHLHGELFFHFNGVDITIRTHHTMRKVDGRWFVEQIIVH,0.468
23,DRLEELLRHVSSLFLHSVETGDFDILQKLADPHVRMEVDGKELHGREHMVQRILDEYHKFGFTQIDSRLEDVRVYGDKVEVDLEHHFDGKTYKYEIILRKVNGRWTLESVIVR,1.22
24,RDLDEIARHVIELWKETYETGDERHLRELLDPNMRVEVNGVESHGREEMMKHMVKYAREIRITEIIDRDTDSQGNKLHIHGEIIVEQGDKKHRYTLDVTFFVVDGRIKHLHFRSK,1.2
25,SEMHEATEHLLKLWVHIFETGNEKWFNKLADPDYRSRILYGDKELKSHGRENVVEVLYRWLKHFGFDHVRLEDEHIQGNKVHLHFRVQVNGRHHELDLNIDMVNGKIRHVEVILH,1.5
